In PMC8826899:

What was measured:
[1] = molecular target: HSPA8-GST (recombinant full-length monkey HSPA8 with GST tag) (monkey)
[2] = molecular target: HSPA8-GST (recombinant full-length monkey HSPA8 with GST tag) (monkey); remark: listed apart in the source

Question: How did the PRRSV infectivity (IFA) in MARC-145 cells whose surface HSPA8 (endogenous) was blocked with 16- and 32-fold diluted mouse HSPA8-GST pAbs [1] turn out when “PRRSV virions (PRRSV-2 strain BJ-4) (complex)” was run?
Answer: 75 % decrease

Question: And the PRRSV titers (TCID50) in MARC-145 cells whose surface HSPA8 (endogenous) was blocked with 16-fold diluted mouse HSPA8-GST pAbs; decrease (log10TCID50/mL) [1]?
Answer: 1

Question: What about the PRRSV RNA abundance (RT-qPCR, 24 h) in MARC-145 cells after PRRSV (0.1 MOI) was pre-incubated with soluble HSPA8-GST (0.5, 1, 2 μM); GST protein 2 μM as control [2] of the same substance?
Answer: 50 % reduction
